{
  "source": "patent US20250382602",
  "conditions_in_all_cases": "nanopore translocation, FLO-MIN112; background mutations not given",
  "key": {"[1]": {"target": "T1, Dda 1993 351Q 351Q (Enterobacteria phage T4) (UniProt P32270)", "T1 sequence": "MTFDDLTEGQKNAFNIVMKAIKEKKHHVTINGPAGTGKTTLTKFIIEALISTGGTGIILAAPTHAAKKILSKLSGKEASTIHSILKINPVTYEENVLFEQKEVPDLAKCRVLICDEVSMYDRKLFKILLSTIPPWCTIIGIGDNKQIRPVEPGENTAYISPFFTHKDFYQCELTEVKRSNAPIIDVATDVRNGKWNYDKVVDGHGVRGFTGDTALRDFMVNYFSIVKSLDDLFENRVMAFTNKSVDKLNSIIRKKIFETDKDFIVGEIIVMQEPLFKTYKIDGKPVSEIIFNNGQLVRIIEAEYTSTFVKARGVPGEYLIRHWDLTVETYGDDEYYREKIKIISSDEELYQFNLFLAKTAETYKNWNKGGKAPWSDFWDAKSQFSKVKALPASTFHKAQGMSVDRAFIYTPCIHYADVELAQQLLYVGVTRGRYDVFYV"}, "[2]": {"target": "T2, Dda 1993 K358S K358S (Enterobacteria phage T4) (UniProt P32270)", "T2 sequence": "T1 sequence with Q351K, K358S"}, "[3]": {"target": "T3, Dda 1993 K358A K358A (Enterobacteria phage T4) (UniProt P32270)", "T3 sequence": "T1 sequence with Q351K, K358A"}, "[4]": {"target": "T4, Dda 1993 361Q 361Q (Enterobacteria phage T4) (UniProt P32270)", "T4 sequence": "T1 sequence with Q351K, E361Q"}, "[5]": {"target": "T5, Dda 1993 354A 354A (Enterobacteria phage T4) (UniProt P32270)", "T5 sequence": "T1 sequence with Q351K, L354A"}, "[6]": {"target": "T6, Dda 1993 Y350I Y350I (Enterobacteria phage T4) (UniProt P32270)", "T6 sequence": "T1 sequence with Y350I, Q351K"}},
  "note": "Residue numbers refer to the chain shown, from its start.",
  "data": [
    {"substance": "barcoded 3.6 kb DNA analyte ligated to sequencing Y adaptor", "values": [
      {"measurement": "activity (bps speed delta vs control)", "setting": "[1]", "result": -5.61},
      {"measurement": "activity (bps speed delta vs control)", "setting": "[2]", "result": 1.6},
      {"measurement": "activity (bps speed delta vs control)", "setting": "[3]", "result": -0.99},
      {"measurement": "activity (bps speed delta vs control)", "setting": "[4]", "result": 13.8},
      {"measurement": "activity (bps speed delta vs control)", "setting": "[5]", "result": 11.3},
      {"measurement": "activity (bps speed delta vs control)", "setting": "[6]", "result": 2.22}
    ]}
  ]
}
